Data: patent publication US9725518B2, “Antibodies that bind to Jagged 1” (Cancer Research Technology Limited, priority 2013, dated 2017)
Where a chain is given by its changes, count along the chain named.

B1: J1-183D variant 15: humanised/de-immunised J1-183D: J1-183D_VL_4 + J1-183D_VH_3 (antibody, V domains shown)
VH: QVQLVQSGAELKKPGASVKVSCKVSGYAFTDYAIHWVRQAPGQGLEWMGIINTYYGDSKYAQKFQGRVTMTVDTSTSTAYMELSSLRSEDTAVYYCARGYDGFAYWGQGTLVTVSSASTKGP
VL: DIQMTQSPSSLSASVGDRVTITCRTSENIYSYLTWYQQKPGKAPKLLIYHAKILDSGVPSRFSGSGSGTDFTLTISSLQPEDFATYYCQHHYDIPWTFGGGTKLEIKRT
B2: J1-183D variant 13: humanised/de-immunised J1-183D: J1-183D_VL_4 + J1-183D_VH_1 (antibody, V domains shown)
VH: B1 VH with V37I, A61N, Q65K, G66D, T74K
VL: B1 VL
B3: J1-183D variant 12: humanised/de-immunised J1-183D: J1-183D_VL_3 + J1-183D_VH_4 (antibody, V domains shown)
VH: B1 VH with L11V, V24A, A28T
VL: B1 VL with H50N
B4: J1-183D variant 14: humanised/de-immunised J1-183D: J1-183D_VL_4 + J1-183D_VH_2 (antibody, V domains shown)
VH: B1 VH with V37I
VL: B1 VL
B5: J1-183D variant 11: humanised/de-immunised J1-183D: J1-183D_VL_3 + J1-183D_VH_3 (antibody, V domains shown)
VH: B1 VH
VL: B1 VL with H50N
B6: J1-183D variant 16: humanised/de-immunised J1-183D: J1-183D_VL_4 + J1-183D_VH_4 (antibody, V domains shown)
VH: B1 VH with L11V, V24A, A28T
VL: B1 VL
B7: J1-65D chimeric: chimeric antibody with unaltered CDRs: J1-65D_VL + J1-65D_VH (antibody, V domains shown)
VL: DIQLTQSPASLSASVGETVTITCRASGNIHNYLAWYQQKQGKSPQLLVYNAKTLADDIPSRFSGSGSGTQYSLKINSLQPEDFGSYYCQHFWSAPWTFGGGTKLEIK
VH: QVQLQQPGAELVRPGASVKLSCKALGYTFTDYEMHWVKETPVHGLEWIGAIQPGGGGTAYNQKFKGKATLTADKSSSTAYMELSSLTSEDSAVYYCTRRGYDDYPFAYWGQGTLVTVSS

Target: T1, N1 binding to cell surface expressed hJ1 (Homo sapiens, UniProt P78504)
T1 construct: cell expressed full length human J1 (hJ1; HEK293 transfectants); expressed in transfected cells; host or cells: HEK293
Assay: Notch binding blocking assay (FACS): N1 EGF11-13 beads staining human J1-expressing cells
Parameters: key: +: Complete blocking; X: No blocking
Settings: final antibody concentration 0.2 μg/ml
Experimental: To functionally identify mAbs with the capacity to disrupt the J1-N1 protein:protein interaction, hybridoma culture supernatants were tested in a FACS-based binding assay. Biotinylated soluble human N1 EGF11-13 recombinant protein was bound to avidin-coated beads and used to stain J1-expressing cells in the presence or absence of each mAb that recognised cell surface hJ1 by FACS. […] The four blocking antibodies of the invention were also able to block the binding of recombinant […] to a biotin-tagged J1 DSL-EGF3 recombinant protein in an ELISA assay (FIG. 1B). […] The four blocking mAbs of the invention were purified from serum-free culture supernatants and equal concentrations of purified antibodies were used to compare their activity in subsequent assays (unless hybridoma supernatant was specified). Sequence conservation across the DSL domain raised the possibility that the J1 mAbs may also be able to bind the Jagged 2 (J2) protein. Antibody binding specificity was initially tested by immunocytochemical labelling of cytospin samples of hJ1 and hJ2 transfectants (FIG. 2). All antibodies stained J1 transfectants but none stained the J2 transfected cells, and J2 expression in the same experiment was confirmed using a commercial anti-J2 antibody. The specificity of the purified mAbs was further investigated in mammalian cells transfected with hJ2, human Delta-like ligand 4 (hDLL4), or mJ1 (FIG. 3). Transfectants were FACS stained with 10 μg/ml of each of the four blocking mAbs.
To test the blocking efficiencies of the J1 mAbs, purified mAbs were titrated to determine the concentration required to block recombinant N1 binding to cell surface expressed hJ1. Beads coated with a bacterially-expressed N1 EGF11-13 protein were used to stain the hJ1-expressing cells in the presence of various concentrations of mAbs.
The FACS-based binding assay using biotinylated soluble human N1 EGF11-13 recombinant protein bound to avidin-coated fluorescent beads to stain J1-expressing cells was performed using a dilution series of each variant mAb to test their ability to block J1 binding to N1 by FACS (Table 7). […] Thus 12/16 J1-65D1 variants V1-12 and all J1-183D variants have the desired binding and blocking activity.
Human N1 EGF11-13 (411-526) was expressed in E. coli, refolded in vitro and labelled with purple fluorescent avidin-coated beads (Spherotech) as previously described. HEK293 cells transfected with human J1 or B16F10 cells transfected with mouse J1 were stained with N1 fluorescent beads in the presence of J1 antibody supernatants or purified antibody (murine, chimeric or humanised) diluted in HBBS/10% FCS. Cells were washed and re-suspended in staining buffer before being analysed with a FACSCalibur and data analysis with CellQuest. HEK293 cells transfected with human Jagged 2 and B16F10 cells transfected with human and mouse DLL4 were stained similarly to test blocking specificity.

T1 sequence (P78504 34-1218): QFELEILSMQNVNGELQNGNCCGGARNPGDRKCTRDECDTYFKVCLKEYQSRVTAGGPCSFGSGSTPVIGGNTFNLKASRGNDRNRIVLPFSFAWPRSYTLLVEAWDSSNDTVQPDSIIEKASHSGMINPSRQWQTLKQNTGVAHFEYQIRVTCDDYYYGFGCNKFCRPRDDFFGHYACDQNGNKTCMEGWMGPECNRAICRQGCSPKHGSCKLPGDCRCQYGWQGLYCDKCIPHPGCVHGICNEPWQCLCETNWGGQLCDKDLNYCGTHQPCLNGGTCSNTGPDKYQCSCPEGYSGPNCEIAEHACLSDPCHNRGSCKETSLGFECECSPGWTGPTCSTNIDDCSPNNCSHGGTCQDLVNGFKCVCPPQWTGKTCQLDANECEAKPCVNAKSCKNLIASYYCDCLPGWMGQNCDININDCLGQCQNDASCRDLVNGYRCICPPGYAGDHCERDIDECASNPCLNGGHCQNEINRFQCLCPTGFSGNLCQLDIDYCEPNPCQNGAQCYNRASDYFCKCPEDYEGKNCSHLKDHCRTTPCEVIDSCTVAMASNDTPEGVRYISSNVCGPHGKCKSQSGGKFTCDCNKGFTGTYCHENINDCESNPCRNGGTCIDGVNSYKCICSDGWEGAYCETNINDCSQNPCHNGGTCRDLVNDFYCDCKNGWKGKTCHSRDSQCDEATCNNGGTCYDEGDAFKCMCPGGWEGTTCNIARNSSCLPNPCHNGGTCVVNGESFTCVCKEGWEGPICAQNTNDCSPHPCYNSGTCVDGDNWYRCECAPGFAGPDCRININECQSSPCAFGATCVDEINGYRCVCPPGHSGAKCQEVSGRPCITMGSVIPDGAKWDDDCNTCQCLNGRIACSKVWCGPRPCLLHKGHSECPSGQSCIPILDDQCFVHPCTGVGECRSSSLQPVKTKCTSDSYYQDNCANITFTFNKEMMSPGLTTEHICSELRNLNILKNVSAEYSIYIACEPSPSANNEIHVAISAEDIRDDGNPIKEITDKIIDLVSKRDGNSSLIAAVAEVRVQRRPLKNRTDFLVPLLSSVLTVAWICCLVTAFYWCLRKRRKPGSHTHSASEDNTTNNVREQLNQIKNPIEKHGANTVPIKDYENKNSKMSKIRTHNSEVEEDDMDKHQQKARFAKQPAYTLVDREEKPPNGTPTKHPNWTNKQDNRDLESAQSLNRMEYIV

| Molecule | Blocking of Notch1 binding to cell surface Jagged 1 |
| --- | --- |
| B1 | X |
| B2 | X |
| B3 | X |
| B4 | X |
| B5 | X |
| B6 | X |
| B7 | X |

Same assay, conditions: final antibody concentration 0.4 μg/ml

| Molecule | Blocking of Notch1 binding to cell surface Jagged 1 |
| --- | --- |
| B1 | + (Complete blocking) |
| B2 | + (Complete blocking) |
| B3 | + (Complete blocking) |
| B4 | + (Complete blocking) |
| B5 | + (Complete blocking) |
| B6 | + (Complete blocking) |
| B7 | + (Complete blocking) |

Same assay, conditions: final antibody concentration 0.6 μg/ml

| Molecule | Blocking of Notch1 binding to cell surface Jagged 1 |
| --- | --- |
| B1 | + (Complete blocking) |
| B2 | + (Complete blocking) |
| B3 | + (Complete blocking) |
| B4 | + (Complete blocking) |
| B5 | + (Complete blocking) |
| B6 | + (Complete blocking) |
| B7 | + (Complete blocking) |

Same assay, conditions: final antibody concentration 1.0 μg/ml

| Molecule | Blocking of Notch1 binding to cell surface Jagged 1 |
| --- | --- |
| B1 | + (Complete blocking) |
| B2 | + (Complete blocking) |
| B3 | + (Complete blocking) |
| B4 | + (Complete blocking) |
| B5 | + (Complete blocking) |
| B6 | + (Complete blocking) |
| B7 | + (Complete blocking) |

Tested on: MDA-MB-231 spheroids
Assay: Spheroid assay (3-D growth), MDA-MB-231
Assay type: cell-based, human
Settings: humanised variants 5 μg/ml
From the text: Similar findings were also reported for the Merck anti-N1 mAbs when tested on the LS-1034 cell line. As cell-cell contact is required to activate Notch signalling a spheroid-based 3-D growth model was used to test the ability of the J1 mAbs to block tumour growth. Furthermore, the 3-D model better mimics in vivo conditions including hypoxia and acidosis, allowing evaluation of the mAbs effect in a more realistic setting. Spheroids were generated from MDA-MB-231 breast cancer cells and the ability of different concentrations of the J1-65D mAb to inhibit their growth was evaluated.
Cells were harvested and resuspended in 2.5% Matrigel (BD)-complete DMEM medium. Cell suspension was plated on low-adherence 96-well plates (Corning) (200 μl/well) and spheroids, of approximately fixed cell number (5×10^3 cells for MDA-MB-231 and MDA-MB-468 cell lines; 2×10^3 for MCF7 cells) were then generated by spinning plates at 1800 rpm for 10 minutes. The following day, pictures of the spheroids were taken (day 1) and treatments were added (mAbs were used at 10 μg/ml [5 μg/ml for humanised antibodies] while DBZ was used at the concentration of 100 nM). In some experiments Paclitaxel (1 nM) and Doxorubicin (20 nM) were used in combination with J1-65D mAb treatment. Every 2 days pictures were taken and half of the medium was replaced with fresh one containing mAb/drug. At the end of the experiment, spheroids were either lysed for RNA extraction, were processed and paraffin-embedded for immunohistochemical analysis or were dissociated by pipetting and trypsinization into single cell suspensions for FACS analysis. Spheroid size was evaluated by image analysis using ImageJ software.

| Molecule | spheroid growth inhibition |
| --- | --- |
| B1 | increasingly less effect |
| B3 | increasingly less effect |

Tested on: not listed separately
Assay: Soluble aggregates of transiently expressed antibodies
Assay type: physicochemical
Settings: Protein A purified antibody
From the text: The protein yield of these antibodies, their levels of soluble aggregates and their binding affinity to the immunogen (J1-DE3) are illustrated in (Table 6).

| Molecule | % soluble aggregate |
| --- | --- |
| B1 | 2.21% |
| B2 | 3.43% |
| B3 | 0.66% |
| B4 | 3.02% |
| B5 | 2.5% |
| B6 | 0.72% |
| B7 | 0% |
